Target: APOBEC-1 (apolipoprotein B mRNA editing catalytic subunit 1) (Homo sapiens (Human), UniProt P41238 1-236)
Assay: yeast two-hybrid (MatchMaker; his- selection and lacZ filter lift), negative control
Description: The MatchMaker system includes specific protocols for setting up the yeast two hybrid selection, for verifying true His+, LacZ+ transformants and ruling out false positives. Both the selection scheme and verification of true positives follow the manufacturer's recommendations using cDNAs encoding APOBEC-and ACF (FIG. 9).

Sequence of APOBEC-1 (apolipoprotein B mRNA editing catalytic subunit 1) (P41238 whole entry M80I): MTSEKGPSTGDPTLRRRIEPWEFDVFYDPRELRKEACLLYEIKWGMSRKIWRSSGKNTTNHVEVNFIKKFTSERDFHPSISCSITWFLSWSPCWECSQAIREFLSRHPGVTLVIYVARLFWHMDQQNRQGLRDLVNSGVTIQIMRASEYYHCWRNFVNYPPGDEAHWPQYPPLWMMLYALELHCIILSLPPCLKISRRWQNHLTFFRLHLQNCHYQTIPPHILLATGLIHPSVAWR

- binding result: no binding
B1: lamin C (other, UniProt P02545-2 66-230, looked up)
chain: SEEVVSREVSGIKAAYEAELGDARKTLDSVAKERARLQLELSKVREEFKELKARNTKKEGDLIAAQARLKDLEALLNSKEAALSTALSEKRTLEGELHDLRGQVAKLEAALGEAKKQLQDEMLRRVDAENRLQTMKEELDFQKNIYSEELRETKRRHETRLVEID
notes: Negative-control two-hybrid fusion

From patent publication US20050287648A1 (UNIVERSITY OF ROCHESTER, published 2005)
